Like-named read-outs stand apart in the source and are kept apart here.
Tests used:
Experiment in all cases: single-molecule FRET imaging
[1] = target: Cy3B*/Cy7*-labeled β2Δ6-148C/266C (full-length, minimal cysteine β2 adrenergic receptor mutant) (UniProt P07550)
[2] = target: Cy3B*/Cy7*-labeled β2Δ6-148C/266C (full-length, minimal cysteine β2 adrenergic receptor mutant) (UniProt P07550); remark: listed apart in the source
[3] = target: Cy3B*/Cy7*-labeled β2Δ6-148C/266C (full-length, minimal cysteine β2 adrenergic receptor mutant) (UniProt P07550); remark: listed apart in the source
[4] = target: Cy3B*/Cy7*-labeled β2Δ6-148C/266C (full-length, minimal cysteine β2 adrenergic receptor mutant) (UniProt P07550); remark: listed apart in the source
[5] = target: Cy3B*/Cy7*-labeled β2Δ6-148C/266C (full-length, minimal cysteine β2 adrenergic receptor mutant) (UniProt P07550); remark: listed apart in the source
[6] = target: Cy3B*/Cy7*-labeled β2Δ6-148C/266C (full-length, minimal cysteine β2 adrenergic receptor mutant) (UniProt P07550); remark: listed apart in the source

Substance: Gs heterotrimer (Gαs, Gβ and Gγ) (from UniProt P63092 1-394; P62873 1-340; P59768 1-71) (complex)
- k (high→low) (transition rate from high- to low-FRET states) [1]: 0.7 s⁻¹
- k (high→low) (transition rate from high- to low-FRET states) [2]: 0.7 s⁻¹
- k (high→low) (transition rate from high- to low-FRET states) [3]: 1.1 s⁻¹
- k (high→low) (transition rate from high- to low-FRET states) [4]: 0.4 s⁻¹
- k (high→low) (transition rate from high- to low-FRET states) [5]: 0.7 s⁻¹
- k (high→low) (transition rate from high- to low-FRET states) [6]: 0.6 s⁻¹
- percent Gs coupling [6]: 5 to 20%
